Laboratory results reported in publication PMC8764033, “Single-molecule analysis of specificity and multivalency in binding of short linear substrate motifs to the APC/C” (Nature Communications, 2022).
“And” between values parts separate entries of the source, which are not always exact repeats. Identical values can stand only once.

Assays:
[1] = tested on: APC/C; test: APC/C ubiquitylation assay; assay type: biochemical, yeast; conditions: listed as Hsl1^Halo
Protocol: APC/C ubiquitylation assays were performed as described previously. In short, APC/C was purified from yeast as described above using magnetic IgG beads and activated with a purified Cdh1 or Cdc20 activator. For all APC/C ubiquitylation assays, substrates were produced by in vitro translation with ^35S-Methionine (see Supplementary Table 5 for plasmids). Substrates were purified using magnetic IgG beads. E1 and E2 (Ubc4) were expressed in E. coli and purified as described previously[25],[42]. E2 was charged at 37 °C for 30 min (reaction contained 0.2 mg ml^−1 Uba1, 2 mg ml^−1 Ubc4, 2 mg ml^−1 methylated ubiquitin from Boston Biochem #Y-501, and 1 mM ATP). Charged E2 was added to a reaction containing activated APC/C and substrate. Reaction products were analyzed by SDS-PAGE and Phosphorimaging on a Typhoon 9400 Imager. […]

[2] = target: T1, APC/C^Cdc20 (Saccharomyces cerevisiae, UniProt P26309+P53068); test: SMOR assay, yeast APC/C^Cdc20; assay type: binding; conditions: for mean dwell time: representative of two independent experiments, ± SE, ligand ≤1 nM, buffer C + BSA
T1 construct: APC/C was purified from yeast cells; made in house; host or cells: APC/C from S. cerevisiae W303 strain NHY13 (Cdc16-TAP, Apc1-GFP, cdh1 deleted); Cdc20 from Sf9 (baculovirus)
Protocol: Yeast strains were derivatives of W303 and are listed in Supplementary Table 2. For APC/C purification, we used a strain carrying Cdc16-TAP and lacking Cdh1 (DOM1126); in most experiments, the strain also carried Apc1-GFP (NHY13). Yeast were grown in YPD media to OD600 = 0.8, collected and flash-frozen. Cells were lysed by bead beating in lysis buffer A (50 mM HEPES pH 7.5, 150 mM KCl, 10% glycerol, 0.2% Triton X-100, 63 µM B-glycerophosphate, 48 µM sodium fluoride, 1 µg ml^−1 pepstatin A, 1 µg ml^−1 leupeptin, 1 µg ml^−1 aprotinin, 1 mM PMSF, 1 mM DTT, 0.5 mM EDTA) and APC/C was purified using magnetic IgG beads. The beads were washed using wash buffer A (20 mM HEPES pH 7.5, 150 mM KCl, 10% Glycerol, 0.05% Triton X-100). After incubation with purified Cdh1 or Cdc20, the APC/C was cleaved off the beads with TEV protease in wash buffer A with 0.05% Tween-20 (for single-molecule studies) or 0.05% Triton X-100 (for ensemble assays such as ubiquitylation) and used immediately.
For all SMOR experiments, 24 × 50 mm high precision glass coverslips (Bioscience Tools) and drilled microscope slides were passivated with a combination of PEG and PEG-biotin (coverslips) or PEG only (slides) following a previously published protocol for SiMPull[31]. Reaction chambers (~20 µl) were created using double-sided tape and epoxy. Protein was immobilized on the surface with 0.2 mg ml^−1 NeutrAvidin in buffer C (20 mM HEPES pH 7.5, 150 mM KCl, 10% glycerol, 0.05% Tween-20, 1 mM DTT). Excess NeutrAvidin was washed away and incubated with either biotin-conjugated mouse monoclonal anti-Strep-Tag II antibody (LSBio, Cat. No. LS-C203632-100) or biotin-conjugated rabbit polyclonal anti-GFP antibody (Rockland, Cat. No. 600-406-215) diluted in buffer C + BSA (0.1 mg ml^−1; Molecular Biology Grade Bovine Serum Albumin). Activator WD40 and activated APC/C (typically 50 µl containing about 65 ng APC/C, of which only a small fraction is immobilized on the glass) were immobilized using anti-Strep-Tag II, while APC/C alone was immobilized with anti-GFP. SMOR results were similar when performed in the buffer (wash buffer B) used in polarization anisotropy.
To capture dynamic protein–protein interactions, dye-labeled substrate diluted in buffer C + BSA was added to the chamber containing immobilized proteins. Interactions were imaged by TIRF microscopy as described below. For optimal signal-to-noise ratio, peptide concentration was no greater than 1 nM. Protein substrates included Hsl1 aa 667–872 and a C-terminal HaloTag followed by a TAP tag, and were produced by translation in rabbit reticulocyte lysates using TnT Quick Coupled Transcription/Translation System (Promega) (see Supplementary Table 5 for plasmids). Protein was purified with magnetic IgG beads and labeled on the bead with JF549 or JF646 dye so that unbound dye could be washed away. Purified dye-labeled protein was then cleaved from the beads using TEV protease. Before adding substrate to the reaction chamber, oxygen scavenging reagents were added (10 nM protocatechuate-3,4-dioxygenase, 2.5 mM protocatechuic acid, and 1 mM Trolox)[41]. A detailed description of the SMOR analysis pipeline is found in Supplementary Note 1.
Microscopy was performed with a Nikon Eclipse TE2000-E with Perfect Focus with a 100 × 1.49na oil, Apo TIRF DIC N2, 0.13-0.2, WD0.12 objective. Movies were recorded using the Andor iXon DU-897E-CSO. For visualizing GFP-tagged protein, a 491 nm laser was used with an ET525/50 (Chroma) filter for emission. […]

B1: Hsl1^Halo KEN & D: Hsl1 fragment (amino acids 667–872) with C-terminal HaloTag, JF549-labeled (protein)
chain: QNSASKRSLYSLQSISKRSLNLNDLLVFDDPLPSKKPASENVNKSEPHSLESDSDFEILCDQILFGNALDRILEEEEDNEKERDTQRQRQNDTKSSADTFTISGVSTNKENEGPEYPTKIEKNQFNMSYKPSENMSGLSSFPIFEKENTLSSSYLEEQKPKRAALSDITNSFNKMNKQEGMRIEKKIQREQLQKKNDRPSPLKPIQ
modifications: JF549 or JF646 dye covalently bound to the HaloTag; left off: HaloTag, C-terminal, kept | TAP, C-terminal, cleaved
notes: Hsl1 fragment (amino acids 667–872) with C-terminal HaloTag, JF549-labeled
ubiquitylation (in words) [1]: HaloTag does not affect ubiquitylation or binding
fold lower affinity/dwell time with APC/C^Cdc20 than with APC/C^Cdh1 (preference for APC/C^Cdh1) [2]: 600 fold
Dwell Time ([2]; Supplementary Table 1, replicate 1 (movie listed first)): 0.518 ± 0.032 s
Dwell Time ([2]; Supplementary Table 1, replicate 2 (movie listed second)): 0.396 ± 0.027 s
mean dwell time [2]: 0.518 ± 0.03 s and 0.518 s
mean dwell time ([2]; listed as Hsl1 fragment): 0.518 ± 0.03 s
